Two molecules from PMC3467059 (Nucleic Acids Research, 2012) can be followed below.

In one assay the target is PspF1–275 F85Y (E. coli, UniProt P37344 1-275, F85Y). The assay is described as follows: native gel or EMSA. (In general: In EMSA bound probe runs differently from free probe, usually more slowly.)
For the next assay, the target named is PspF1–275 T86S (E. coli, UniProt P37344 1-275, T86S). The assay is described as follows: native gel or EMSA.

Consider QLQQAIRL (peptide, UniProt P06223 18-25, looked up) [σ54RI peptide fragment, residues 18–25 (Patch 1)], for which, in the assay with PspF1–275 F85Y, the binding result is “binds”.

As to LQQELQQ (peptide, UniProt P06223 33-39, looked up) [σ54RI peptide fragment, residues 33–39 (Patch 2)], the binding result with PspF1–275 T86S and with PspF1–275 F85Y was “binds” each time.
